Experiments:
ROS detection in BMSCs = conditions: glycan lost; control: wild-type Foxo3
[1] = cycloheximide chase, Western blot, Foxo3-KO BMSCs; conditions: glycan lost; control: wild-type Foxo3
[2] = O-GlcNAc at S296

B1: FOXO3: S296V (protein)
parent chain: MAEAPASPVPLSPLEVELDPEFEPQSRPRSCTWPLQRPELQASPAKPSGETAADSMIPEEDDDEDDEDGGGRASSAMVIGGGVSSTLGSGLLLEDSAMLLAPGGQDLGSGPASAAGALSGGTPTQLQPQQPLPQPQPGAAGGSGQPRKCSSRRNAWGNLSYADLITRAIESSPDKRLTLSQIYEWMVRCVPYFKDKGDSNSSAGWKNSIRHNLSLHSRFMRVQNEGTGKSSWWIINPDGGKSGKAPRRRAVSMDNSNKYTKSRGRAAKKKAALQAAPESADDSPSQLSKWPGSPTSRSSDELDAWTDFRSRTNSNASTVSGRLSPILASTELDDVQDDDGPLSPMLYSSSASLSPSVSKPCTVELPRLTDMAGTMNLNDGLAENLMDDLLDNIALPPSQPSPPGGLMQRGSSFPYTAKSSGLGSPTGSFNSTVFGPSSLNSLRQSPMQTIQENRPATFSSVSHYGNQTLQDLLASDSLSHSDVMMTQSDPLMSQASTAVSAQNARRNVMLRNDPMMSFAAQPTQGSLVNQNLLHHQHQTQGALGGSRALSNSVSNMGLSDSSSLGSAKHQQQSPASQSMQTLSDSLSGSSLYSASANLPVMGHDKFPSDLDLDMFNGSLECDMESIIRSELMDADGLDFNFDSLISTQNVVGLNVGNFTGAKQASSQSWVPG
other: cellular ROS level (ROS detection in BMSCs): increases | degradation_or_half_life, half_life [1]: decreases, 12 vs 24 | degradation_or_half_life [2]: decreases, half-life from 24 hours to 12 hours

Reference: publication PMC12669651
